# Measurements taken from patent publication US20250388696A1.
# Where no end group is shown, it is not given here.
# Biological target: extra domain B of oncofetal human fibronectin (ED-B) (human) (UniProt P02751)
# Test: SPR
# extra domain B of oncofetal human fibronectin (ED-B) (human), sequence (P02751 1266-1356 limits assumed): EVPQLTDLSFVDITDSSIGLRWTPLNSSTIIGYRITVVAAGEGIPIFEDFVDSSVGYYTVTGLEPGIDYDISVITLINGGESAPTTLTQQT
row,Binder,Kd [nM]
1,"LAEAKVLALKELDKYGISNYYKNLINNAKTVEGVKALKEAIVAALP (designed binder, part only; not given: ED-B binding domain, linker, part only, also: DOTA coupled, site not given here, Lu loaded) [ED-B specific fusion protein 219087 DOTA Lu]",< 1

# Biological target: human serum albumin (human) (UniProt P02768)
# Sequence (P02768 25-609 limits assumed): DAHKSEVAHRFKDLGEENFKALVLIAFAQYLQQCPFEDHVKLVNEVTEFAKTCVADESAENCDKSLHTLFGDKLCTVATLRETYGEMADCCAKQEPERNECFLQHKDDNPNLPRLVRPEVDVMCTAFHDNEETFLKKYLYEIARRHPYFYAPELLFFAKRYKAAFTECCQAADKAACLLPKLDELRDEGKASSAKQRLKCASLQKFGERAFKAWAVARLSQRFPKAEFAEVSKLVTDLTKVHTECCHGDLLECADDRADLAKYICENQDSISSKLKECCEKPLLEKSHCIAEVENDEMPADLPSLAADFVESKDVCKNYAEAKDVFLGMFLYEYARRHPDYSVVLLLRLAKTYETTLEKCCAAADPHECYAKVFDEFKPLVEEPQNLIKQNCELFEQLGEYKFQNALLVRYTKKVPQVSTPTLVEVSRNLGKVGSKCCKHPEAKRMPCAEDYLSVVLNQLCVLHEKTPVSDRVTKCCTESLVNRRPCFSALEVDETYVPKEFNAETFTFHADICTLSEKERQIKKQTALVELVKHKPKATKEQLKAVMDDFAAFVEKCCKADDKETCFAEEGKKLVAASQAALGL
# Test: SPR
row,Binder,Kd [nM]
1,"LAEAKVLALKELDKYGISNYYKNLINNAKTVEGVKALKEAIVAALP (designed binder, part only; not given: ED-B binding domain, linker, part only, also: DOTA coupled, site not given here, Lu loaded) [ED-B specific fusion protein 219087 DOTA Lu]",1.3

# Biological target: mouse serum albumin (mouse) (UniProt P07724)
# Sequence (P07724 25-608 limits assumed): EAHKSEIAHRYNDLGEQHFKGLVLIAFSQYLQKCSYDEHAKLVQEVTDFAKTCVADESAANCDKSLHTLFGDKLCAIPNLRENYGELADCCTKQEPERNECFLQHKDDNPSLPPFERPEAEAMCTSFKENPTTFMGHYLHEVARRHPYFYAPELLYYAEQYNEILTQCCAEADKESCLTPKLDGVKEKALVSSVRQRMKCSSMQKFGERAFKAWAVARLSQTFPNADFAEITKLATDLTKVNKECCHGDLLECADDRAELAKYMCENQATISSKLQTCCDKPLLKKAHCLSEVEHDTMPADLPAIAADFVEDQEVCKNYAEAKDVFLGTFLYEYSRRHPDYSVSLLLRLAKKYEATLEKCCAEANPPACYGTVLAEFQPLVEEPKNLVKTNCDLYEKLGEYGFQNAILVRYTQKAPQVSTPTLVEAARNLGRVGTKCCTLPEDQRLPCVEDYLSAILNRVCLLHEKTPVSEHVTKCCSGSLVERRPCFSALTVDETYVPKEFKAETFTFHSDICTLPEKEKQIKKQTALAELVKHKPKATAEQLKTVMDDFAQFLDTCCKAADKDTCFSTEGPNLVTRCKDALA
# Test: SPR
row,Binder,Kd [nM]
1,"LAEAKVLALKELDKYGISNYYKNLINNAKTVEGVKALKEAIVAALP (designed binder, part only; not given: ED-B binding domain, linker, part only, also: DOTA coupled, site not given here, Lu loaded) [ED-B specific fusion protein 219087 DOTA Lu]",1.3

# Biological target: human serum albumin (human) (UniProt P02768)
# Test: SPR, HSA immobilised on the chip, pH 7.3, 1:1 Langmuir fit
row,Binder,Kd [nM]
1,"LAEAKVLALKELDKYGISNYYKNLINNAKTVEGVKALKEAIVAALP (designed binder, part only; not given: ED-B binding domain, linkers, tags, part only, also: fusion protein, linkers and tags not given here) [219087]",1.4
2,"LAEAKVLALKELDKYGISNYYKNLIDKAKTIEGVEALKDAILAA (designed binder, part only; not given: ED-B binding domain, linkers, tags, part only) [215680]",0.8
3,"LAEAKVLALKELDKYGISNYYKNLINNAKTVEGVKALKEAIVAA (designed binder, part only; not given: FAP binding domain, linkers, tags, part only) [221191]",3.8
4,"LAEAKVLALKELDKYGISNYYKNLINNAKTIEGVEALKDAIVAA (designed binder, part only; not given: ED-B binding domain, linkers, tags, part only) [215673]",3.3
5,"LAEAKVLALKELDKYGISNYYKNLINNAKTVEGVKALKEAIVAA (designed binder, part only; not given: ED-B binding domain, linkers, tags, part only) [217806]",1.5
6,"LAEAKVLALKELDKYGISNYYKNLINNAKTIEGVEALKDAILAA (designed binder, part only; not given: ED-B binding domain, linkers, tags, part only) [215675]",1.1
7,"LAEAKVLALKELDKYGISNYYKNLINNAKTIEGVKALKAAIVAA (designed binder, part only; not given: ED-B binding domain, linkers, tags, part only) [215663]",2.6
8,"LAEAKVLALKELDKYGISNYYKNLINNAKTIEGVKALKDQIVAA (designed binder, part only; not given: ED-B binding domain, linkers, tags, part only) [215661]",3.8
9,"LAEAKVLALKELDKYGISNYYKNLINNAKTIEGVKALKEAIVAA (designed binder, part only; not given: ED-B binding domain, linkers, tags, part only) [215670]",3.4
10,"LAEAKVLALKELDKYGISNYYKNLINNAKTIEGVKALKAQILAA (designed binder, part only; not given: ED-B binding domain, linkers, tags, part only) [215665]",3
11,"LAEAKVLALKELDKYGISNYYKNLINNAKTIEGVEALKEAIVAA (designed binder, part only; not given: ED-B binding domain, linkers, tags, part only) [215674]",5
12,"LAEAKVLALKELDKYGISNYYKNLINNAKTIEGVKALKDEIVAA (designed binder, part only; not given: FAP binding domain, linkers, tags, part only) [221215]",7.9
13,"LAEAKVLALKELDKYGISNYYKNLINNAKTIEGVKALKDEIVAA (designed binder, part only; not given: ED-B binding domain, linkers, tags, part only) [215671]",7.3
14,"LAEAKVLALKELDKYGISNYYKNLINNAKTIEGVEALKAQIVAA (designed binder, part only; not given: ED-B binding domain, linkers, tags, part only) [215659]",13.4
15,"LAEAKVLAIKELDKAGISDYYFNLINNAKTVEGVKALKAQIVAA (designed binder, part only; not given: ED-B binding domain, linkers, tags, part only) [215035]",2.4
16,"LAEAKVLAIKELDKAGISNYYFNLINNAKTIEGVKALKAQIVAA (designed binder, part only; not given: ED-B binding domain, linkers, tags, part only) [215055]",1.7
17,"LAEAKVLAIKELDKAGISDYYFNLINNAKTIEGVKALKAQIVAA (designed binder, part only; not given: ED-B binding domain, linkers, tags, part only) [215039]",2.2
18,"LAEAKVLALKELDKYGISNYYKNLINNAKTIEGVKALKAQIVAA (designed binder, part only; not given: ED-B binding domain, linkers, tags, part only) [215652]",4.1
19,"LAEAKVLAIKELDKAGISDYYFNLINNAKTVDGVKALKAQIVAA (designed binder, part only; not given: ED-B binding domain, linkers, tags, part only) [215037]",19.9
20,"LAEAKVLAIKELDKAGISNYYFNLINNAKTVEGVKDLKAQIVAA (designed binder, part only; not given: ED-B binding domain, linkers, tags, part only) [215052]",7.9
21,"LAEAKVLAIKELDKAGISNYYFNLINNAKTVEGVKALKAQIVAA (designed binder, part only; not given: ED-B binding domain, linkers, tags, part only) [219089]",12.5

# Biological target: extra domain B of oncofetal human fibronectin (ED-B) (human) (UniProt P02751)
# Test: SPR, ED-B immobilised on the chip, pH 7.3, 1:1 Langmuir fit
row,Binder,Kd [nM]
1,"LAEAKVLALKELDKYGISNYYKNLINNAKTVEGVKALKEAIVAALP (designed binder, part only; not given: ED-B binding domain, linkers, tags, part only, also: fusion protein, linkers and tags not given here) [219087]",0.2
2,"LAEAKVLALKELDKYGISNYYKNLIDKAKTIEGVEALKDAILAA (designed binder, part only; not given: ED-B binding domain, linkers, tags, part only) [215680]",0.1
3,"LAEAKVLALKELDKYGISNYYKNLINNAKTIEGVEALKDAIVAA (designed binder, part only; not given: ED-B binding domain, linkers, tags, part only) [215673]",0.1
4,"LAEAKVLALKELDKYGISNYYKNLINNAKTVEGVKALKEAIVAA (designed binder, part only; not given: ED-B binding domain, linkers, tags, part only) [217806]",0.1
5,"LAEAKVLALKELDKYGISNYYKNLINNAKTIEGVEALKDAILAA (designed binder, part only; not given: ED-B binding domain, linkers, tags, part only) [215675]",0.6
6,"LAEAKVLALKELDKYGISNYYKNLINNAKTIEGVKALKAAIVAA (designed binder, part only; not given: ED-B binding domain, linkers, tags, part only) [215663]",0.2
7,"LAEAKVLALKELDKYGISNYYKNLINNAKTIEGVKALKDQIVAA (designed binder, part only; not given: ED-B binding domain, linkers, tags, part only) [215661]",0.4
8,"LAEAKVLALKELDKYGISNYYKNLINNAKTIEGVKALKEAIVAA (designed binder, part only; not given: ED-B binding domain, linkers, tags, part only) [215670]",0.7
9,"LAEAKVLALKELDKYGISNYYKNLINNAKTIEGVKALKAQILAA (designed binder, part only; not given: ED-B binding domain, linkers, tags, part only) [215665]",0.1
10,"LAEAKVLALKELDKYGISNYYKNLINNAKTIEGVEALKEAIVAA (designed binder, part only; not given: ED-B binding domain, linkers, tags, part only) [215674]",0.1
11,"LAEAKVLALKELDKYGISNYYKNLINNAKTIEGVKALKDEIVAA (designed binder, part only; not given: ED-B binding domain, linkers, tags, part only) [215671]",0.1
12,"LAEAKVLALKELDKYGISNYYKNLINNAKTIEGVKALKAQIVAA (designed binder, part only; not given: ED-B binding domain, linkers, tags, part only) [215652]",0.4
13,"LAEAKVLAIKELDKAGISNYYFNLINNAKTVEGVKALKAQIVAA (designed binder, part only; not given: ED-B binding domain, linkers, tags, part only) [219089]",0.3

# Biological target: hFAP-Fc (human) (UniProt Q12884)
# Sequence (Q12884 26-760 limits assumed): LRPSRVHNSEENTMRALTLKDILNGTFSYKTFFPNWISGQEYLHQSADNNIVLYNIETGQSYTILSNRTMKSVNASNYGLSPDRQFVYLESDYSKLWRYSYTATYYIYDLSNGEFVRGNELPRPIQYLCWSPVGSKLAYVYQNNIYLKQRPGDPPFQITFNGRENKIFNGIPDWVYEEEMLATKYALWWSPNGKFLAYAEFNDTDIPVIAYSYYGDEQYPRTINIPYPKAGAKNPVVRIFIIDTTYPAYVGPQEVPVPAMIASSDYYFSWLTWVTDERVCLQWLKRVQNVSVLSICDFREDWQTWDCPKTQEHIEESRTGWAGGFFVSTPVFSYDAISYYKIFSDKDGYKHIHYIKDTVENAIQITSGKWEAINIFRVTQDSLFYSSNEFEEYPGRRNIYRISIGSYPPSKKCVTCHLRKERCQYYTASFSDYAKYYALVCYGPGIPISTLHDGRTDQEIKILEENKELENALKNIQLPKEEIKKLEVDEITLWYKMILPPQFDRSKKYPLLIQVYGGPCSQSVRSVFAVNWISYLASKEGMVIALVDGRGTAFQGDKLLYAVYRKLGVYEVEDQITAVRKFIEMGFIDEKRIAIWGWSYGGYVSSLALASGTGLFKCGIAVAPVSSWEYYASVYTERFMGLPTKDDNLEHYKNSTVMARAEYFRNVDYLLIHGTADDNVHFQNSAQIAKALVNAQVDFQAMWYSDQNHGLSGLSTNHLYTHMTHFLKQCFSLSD
# Test: SPR, Fc-tagged FAP captured on immobilised protein A, pH 7.3, 1:1 Langmuir fit
row,Binder,Kd [nM]
1,"LAEAKVLALKELDKYGISNYYKNLINNAKTVEGVKALKEAIVAA (designed binder, part only; not given: FAP binding domain, linkers, tags, part only) [221191]",3.8
2,"LAEAKVLALKELDKYGISNYYKNLINNAKTIEGVKALKDEIVAA (designed binder, part only; not given: FAP binding domain, linkers, tags, part only) [221215]",8
